Key:
[1] = target: T1, hOrai1-mOrai1 ECL2 chimeric protein (human/mouse chimera, UniProt Q96D31 1-301); test: FACS, 293EBNA transfectants
T1 construct: human Orai1 with mouse ECL2; also called Ch
Description: FIG. 15A-B illustrates the results of FACS analysis showing binding to human Orai1 extracellular loop 2-mouse Orai1 mutant expressed on the surface of HEK-293-EBNA cells. HEK-293-EBNA cells were transiently transfected with mouse Orai1 mutant where human Orai1 extracellular loop 2 replaced the mouse Orai1 extracellular loop 2 and human Orai1 mutant where mouse Orai1 extracellular loop 2 replaced human extracellular loop 2. Transfected cells were stained first with recombinant monoclonal antibodies then counter-stained with a secondary phycoerythrin-labeled goat (“Gt”) anti-human (“Hu”) IgG F(ab′)₂ antibody fragment and visualized using FACS.
(§1) FACS binding analysis. Transfected 293EBNA cells transiently expressed hOrai1-mOrai1 ECL2 or mOrai1-hOrai1 ECL2 chimera. The transfected cells were harvested at 48 hours post-transfection. Cells transfected with pcDNA3.1 were used as negative controls. Cells were washed once with ice-cold 1×PBS, resuspended in ice-cold FACS buffer (1×D-PBS+2% goat serum), and 2×10⁵ cells in 100 μL were stained per antibody combination. All antibody incubation steps were performed on ice for 1 hour. […] Next, the unlabelled antibody was detected using goat F(ab′)₂ anti-mouse or anti-human IgG-phycoerythrin (IgG-PE), followed by a wash with 200 μL of ice-cold FACS buffer before flow cytometry analysis. Unstained cells and cells stained with detecting antibodies were used as negative controls. The values of relative level of fluorescence were calculated using FCS Express (De Novo Software) and mean values were calculated using log-transformed data (geometric mean). The results of the FACS analysis are shown in FIG. 15A-B, which supports the conclusion that the hOrai1 ECL2 domain is the region of hOrai1 where antibodies of the present invention bind.

human Orai1 = target: T2, human Orai1 (human, UniProt Q96D31 1-301); test: FACS Kd, AM1-CHO/hOrai1/hSTIM1-YFP cells
T2 construct: on AM1-CHO/hOrai1/hSTIM1-YFP, AM1/hOrai1, HEK-293 transfectants, endogenous on Jurkat and blood cells; in Westerns from cell lysates; also called hOrai1; CRACM1
Description: The equilibrium plates were centrifuged at 500 g for 3 minutes and cell pellets were washed twice with 200 μL of ice cold FACS buffer (1×D-PBS+2% FBS). The cells were then incubated with a secondary antibody, goat anti-human Fc Cy5 at 5 μg/mL and 100 μL per well for 1 h on ice in the dark. Following the incubation, the cells were washed twice with 200 μL of ice-cold FACS buffer before flow cytometry analysis. The GeoMean values gated on live cell population measure the bound [Ab]. The inverse of the GeoMean values that reflects theoretical free [Ag] in the equilibrium solution was then calculated. The inverse values of the GeoMean read were used in KinExA® Pro software for analysis and Kd calculation for each antibody. The free [Ag] measure was plotted against the starting concentration of titrating component and from these plots at two different cell concentrations the Kd was obtained from curve fitting using n-curve analysis in KinExA Pro software. […] Shown in Table 14 (below) are the equilibrium dissociation constant (Kd) values of invented mAbs determined by FACS Kd measurement.

human Orai2 = target: T3, human Orai2 (human, UniProt Q96SN7 1-254); test: FACS, 293EBNA transfectants
T3 construct: also called hOrai2
Description: (§2) Purified monoclonal antibodies from hybridoma supernantants of the subclones derived from initial hits were assessed for binding to human Orai1, Orai2 and Orai3 expressed on HEK-293-EBNA cells along with vector transfected control parental cells. Cells stained with or without primary mAbs were counter-stained with a secondary phycoerythrin-labeled goat (“Gt”) anti-human (“Hu”) IgG F(ab′)₂ antibody fragment and visualized using FACS.
as §1, with “hOrai1, human Orai2,” for “hOrai1-mOrai1 ECL2”, “human Orai3 (results of binding comparison in FIG. 11A-B), or hOrai1(S218G) (results of binding comparison in FIG. 12A-B); or hOrai1 and hSTIM1; mOrai1 and mouse STIM1; or rat Orai1 and rat STIM1 (results of binding comparison in FIG. 13).” for “mOrai1-hOrai1 ECL2 chimera.”, “[…]” for “100 μL”, “Purified mAbs were assessed by” for “The results of the”, “assay for their ability to specifically bind human Orai1, Orai2 and Orai3 proteins expressed on HEK-293 cells.” for “analysis are shown in FIG. 15A-B, which supports the conclusion that the hOrai1 ECL2 domain is the region of hOrai1 where antibodies of the present invention bind.”

human Orai3 = human Orai3 (human, UniProt Q9BRQ5 1-295); test: FACS, 293EBNA transfectants
Description: as §2
as §1, with “hOrai1, human Orai2,” for “hOrai1-mOrai1 ECL2”, “human Orai3 (results of binding comparison in FIG. 11A-B), or hOrai1(S218G) (results of binding comparison in FIG. 12A-B); or hOrai1 and hSTIM1; mOrai1 and mouse STIM1; or rat Orai1 and rat STIM1 (results of binding comparison in FIG. 13).” for “mOrai1-hOrai1 ECL2 chimera.”, “[…]” for “100 μL”, “Purified mAbs were assessed by” for “The results of the”, “assay for their ability to specifically bind human Orai1, Orai2 and Orai3 proteins expressed on HEK-293 cells.” for “analysis are shown in FIG. 15A-B, which supports the conclusion that the hOrai1 ECL2 domain is the region of hOrai1 where antibodies of the present invention bind.”

rat Orai1 = target: T4, rat Orai1 (rat, UniProt Q5M848 1-304); test: FACS, 293EBNA transfectants with STIM1, thapsigargin
T4 construct: co-expressed with rat STIM1; also called rOrai1
Description: (§3) FIG. 13A-B illustrates the results of FACS analysis showing binding to human Orai1 expressed on the surface of HEK-293-EBNA cells that were treated with 2 μM Thapsigargin. HEK-293-EBNA cells were transiently transfected with human Orai1 and human STIM1, mouse Orai1 and mouse STIM1, rat Orai1 and rat STIM1 and control empty vector. Transfected cells were stained first with recombinant monoclonal antibodies then counter-stained with a secondary phycoerythrin-labeled Gt anti-Hu IgG F(ab′)₂ or Gt anti-Mu IgG F(ab′)₂ antibody fragment, as appropriate, and visualized using FACS.
as §1, with “hOrai1, human Orai2,” for “hOrai1-mOrai1 ECL2”, “human Orai3 (results of binding comparison in FIG. 11A-B), or hOrai1(S218G) (results of binding comparison in FIG. 12A-B); or hOrai1 and hSTIM1; mOrai1 and mouse STIM1; or rat Orai1 and rat STIM1 (results of binding comparison in FIG. 13).” for “mOrai1-hOrai1 ECL2 chimera.”, “[…]” for “100 μL”, “Purified mAbs were assessed by” for “The results of the”, “assay for their ability to specifically bind human Orai1, Orai2 and Orai3 proteins expressed on HEK-293 cells.” for “analysis are shown in FIG. 15A-B, which supports the conclusion that the hOrai1 ECL2 domain is the region of hOrai1 where antibodies of the present invention bind.”

mouse Orai1 = target: T5, mouse Orai1 (mouse, UniProt Q8BWG9 1-304); test: as above
T5 construct: co-expressed with mouse STIM1; also called mOrai1
Description: as §3
as §1, with “hOrai1, human Orai2,” for “hOrai1-mOrai1 ECL2”, “human Orai3 (results of binding comparison in FIG. 11A-B), or hOrai1(S218G) (results of binding comparison in FIG. 12A-B); or hOrai1 and hSTIM1; mOrai1 and mouse STIM1; or rat Orai1 and rat STIM1 (results of binding comparison in FIG. 13).” for “mOrai1-hOrai1 ECL2 chimera.”, “[…]” for “100 μL”, “Purified mAbs were assessed by” for “The results of the”, “assay for their ability to specifically bind human Orai1, Orai2 and Orai3 proteins expressed on HEK-293 cells.” for “analysis are shown in FIG. 15A-B, which supports the conclusion that the hOrai1 ECL2 domain is the region of hOrai1 where antibodies of the present invention bind.”

T3 sequence (Q96SN7 whole entry): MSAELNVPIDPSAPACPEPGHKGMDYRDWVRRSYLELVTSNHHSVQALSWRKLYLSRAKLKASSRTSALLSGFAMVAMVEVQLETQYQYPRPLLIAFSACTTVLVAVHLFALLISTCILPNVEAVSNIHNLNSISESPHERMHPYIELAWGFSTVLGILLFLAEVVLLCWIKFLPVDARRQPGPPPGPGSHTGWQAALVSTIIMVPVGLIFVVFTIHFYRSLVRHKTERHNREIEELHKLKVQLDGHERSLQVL
T4 sequence (Q5M848 whole entry): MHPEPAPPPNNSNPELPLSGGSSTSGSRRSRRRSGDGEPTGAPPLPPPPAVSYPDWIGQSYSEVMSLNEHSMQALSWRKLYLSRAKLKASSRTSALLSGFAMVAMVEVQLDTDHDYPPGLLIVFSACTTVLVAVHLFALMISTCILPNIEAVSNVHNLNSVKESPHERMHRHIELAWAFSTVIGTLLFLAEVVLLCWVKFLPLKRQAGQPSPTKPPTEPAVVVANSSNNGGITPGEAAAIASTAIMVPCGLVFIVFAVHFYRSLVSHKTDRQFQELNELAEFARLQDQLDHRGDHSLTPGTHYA
T1 sequence (Q96D31 other isoform, or with tags, fused parts or gaps mutant): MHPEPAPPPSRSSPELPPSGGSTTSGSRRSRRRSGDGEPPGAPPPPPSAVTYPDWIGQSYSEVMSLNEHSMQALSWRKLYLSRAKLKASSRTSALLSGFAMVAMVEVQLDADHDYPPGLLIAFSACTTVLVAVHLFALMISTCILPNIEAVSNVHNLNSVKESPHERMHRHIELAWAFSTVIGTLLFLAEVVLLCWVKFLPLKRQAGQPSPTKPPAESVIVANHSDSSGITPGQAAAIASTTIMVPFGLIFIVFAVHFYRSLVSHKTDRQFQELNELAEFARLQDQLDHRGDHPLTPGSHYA
T5 sequence (Q8BWG9 whole entry): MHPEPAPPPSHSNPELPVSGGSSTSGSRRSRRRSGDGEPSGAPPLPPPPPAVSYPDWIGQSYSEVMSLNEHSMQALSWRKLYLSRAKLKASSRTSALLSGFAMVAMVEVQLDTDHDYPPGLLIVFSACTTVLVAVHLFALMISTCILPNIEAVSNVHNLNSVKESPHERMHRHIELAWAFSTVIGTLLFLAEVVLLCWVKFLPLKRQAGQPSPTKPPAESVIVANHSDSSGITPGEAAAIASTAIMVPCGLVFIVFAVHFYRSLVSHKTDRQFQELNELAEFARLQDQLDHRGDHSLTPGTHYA
T2 sequence (Q96D31 whole entry): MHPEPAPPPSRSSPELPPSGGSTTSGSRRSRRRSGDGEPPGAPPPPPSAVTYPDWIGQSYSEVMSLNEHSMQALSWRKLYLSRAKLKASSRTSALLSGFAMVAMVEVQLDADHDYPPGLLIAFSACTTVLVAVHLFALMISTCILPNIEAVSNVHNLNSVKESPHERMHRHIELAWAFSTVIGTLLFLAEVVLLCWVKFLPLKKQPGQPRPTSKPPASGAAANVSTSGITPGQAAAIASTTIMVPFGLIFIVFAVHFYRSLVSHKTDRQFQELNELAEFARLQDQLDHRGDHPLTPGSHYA

binding result [1] | Kd (human Orai1) [nM] | binding result (human Orai2) | binding result (human Orai3) | binding result (rat Orai1) | binding result (mouse Orai1) | Binder
no binding (tested: 1 µg) | 1.8 | no binding (tested: 1 µg) | no binding (tested: 1 µg) | no binding (tested: 1 µg) | no binding (tested: 1 µg) | mAb 2B4.1 (antibody, human IgG2, lambda, V domains shown) VH: QVQLVQSGAEVKKPGASVKVSCKASGYTFTDYYMHWVRQAPGQGLEWMGWINPNSGGTNYVQKFQDRVTMTRDTSITTAYMELTRLRSDDTAVYYCAREEGDYGMDVWGQGTTVTVSS VL: QSVLTQPPSVSGAPGQRVTISCTGSNSNIGTGYDVHWYQKLPGTAPRLLIYSHFNRPSGVPDRFSGSTSGTSASLAITGLQAEDEADYYCQSYDSSLSGSVFGGGTKLTVLG
no binding (tested: 1 µg) | 1.2 | no binding (tested: 1 µg) | no binding (tested: 1 µg) | no binding (tested: 1 µg) | no binding (tested: 1 µg) | mAb 5A4.2 (antibody, human IgG2, lambda, V domains shown, fully human IgG2 lambda, Campaign 2) VH: QVQLVQSGAEVKKPGASVKVSCKASGYTFTDYYMNWVRQAPGQGLEWMGWINPNSGGTKYAQKFQGRVTMTRDTSIRTAYMELSRLRSDDTAVYYCSREYGGNSDWFDPWGQGTLVTVSS VL: QSVLTQPPSVSGAPGQRVTISCTGSSSNIGAGYDVHWYQQLPGTAPKLLIYGNSNRPSGVPDRFSGSKSGTSASLAITGLQAEDEADYYCQSYDNRLSDSVVIGGGTKLTVQG
no binding (tested: 1 µg) | 0.443 | no binding (tested: 1 µg) | no binding (tested: 1 µg) | no binding (tested: 1 µg) | no binding (tested: 1 µg) | mAb 5B1.1 (antibody, human IgG2, lambda, V domains shown, fully human IgG2 lambda, Campaign 2; also called mAb 5Bl1.1) VH: QVQLVQSGAEVKKPGASVKVSCKASGYTFTDYYINWVRQAPGQGLEWMGWINPNSGGSSYAQKFQGRVTMTRDTSISTAHMELIRLRSDDTAVYYCARERGGIEDWFDPWGQGTLVTVSS VL: QSVLTQPPSVSGAPGQRVTISCTGSSSNIGAGYDVHWYQQLPGTAPKLLIYGNSNRPSGVPDRFSGSKSGTSASLAITKFQAEDEAVYYCQSYGSGLSGVVFGGGTKLTVLG
no binding (tested: 1 µg) | 0.767 | no binding (tested: 1 µg) | no binding (tested: 1 µg) | no binding (tested: 1 µg) | no binding (tested: 1 µg) | mAb 5F2.1 (antibody, human IgG2, lambda, V domains shown, fully human IgG2 lambda, Campaign 2) VH: QVQLVQSGAEVKKPGASVKVSCKASGYTFTDYYMNWVRQAPGQGLEWMGWINPNSGGTHYAQKFQGRVTMTRDTSISTAYMELSRLRSDDTAVYYCAREYGGYSDWFDPWGQGTLVTVSS VL: QSVLTQPPSVSGAPGQRVTISCTGSRSNIGAGYDVHWYQQLPRTAPKLLIYDNSNRPSGVPDRFSGSKSGSSASLAITGLQAEDEADYYCQSYDNSLSDSVLIGGGTKLTVLG

Reference: patent US20120231006A1 (Amgen, published 2012)
